# Article PMC5842376
# Target: ISCU(M108I) (human) (UniProt Q9H1K1)
# Assay: ITC
substance,measurement,value
"human cysteine desulfurase complex (NIA)2, [NFS1]2:[ISD11]2:[Acp]2 (from UniProt Q9HD34 1-91; P0A6A8 1-78)",Kd,2600 nM
